Reference: paper PMC10397247

Tests used:
4H2143-bH = target: T1, 4H2143-bH; assay: two-hybrid library CCNG1;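 note: natural log of median RNA to DNA barcode read ratio; higher means stronger binding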
T1 chain: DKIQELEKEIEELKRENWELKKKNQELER

4H2585-bH = target: T2, 4H2585-bH; assay: two-hybrid library CCNG1;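 note: natural log of median RNA to DNA barcode read ratio; higher means stronger binding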
T2 chain: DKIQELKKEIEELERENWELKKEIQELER

4H949-bH = target: T3, 4H949-bH; assay: two-hybrid library CCNG1;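 note: natural log of median RNA to DNA barcode read ratio; higher means stronger binding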
T3 chain: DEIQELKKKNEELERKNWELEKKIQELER

4H2253-bH = target: T4, 4H2253-bH; assay: two-hybrid library CCNG1;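 note: natural log of median RNA to DNA barcode read ratio; higher means stronger binding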
T4 chain: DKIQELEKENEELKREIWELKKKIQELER

4H2931-bH = target: T5, 4H2931-bH; assay: two-hybrid library CCNG1;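 note: natural log of median RNA to DNA barcode read ratio; higher means stronger binding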
T5 chain: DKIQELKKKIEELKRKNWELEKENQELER

4H2233-bH = target: T6, 4H2233-bH; assay: two-hybrid library CCNG1;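 note: natural log of median RNA to DNA barcode read ratio; higher means stronger binding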
T6 chain: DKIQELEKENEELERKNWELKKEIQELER

4H932-bH = target: T7, 4H932-bH; assay: two-hybrid library CCNG1
T7 chain: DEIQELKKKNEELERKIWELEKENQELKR

4H2760-bH = target: T8, 4H2760-bH; assay: two-hybrid library CCNG1
T8 chain: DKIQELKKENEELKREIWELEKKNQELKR

4H2162-bH = target: T9, 4H2162-bH; assay: two-hybrid library CCNG1
T9 chain: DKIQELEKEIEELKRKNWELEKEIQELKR

4H235-bH = target: T10, 4H235-bH; assay: two-hybrid library CCNG1
T10 chain: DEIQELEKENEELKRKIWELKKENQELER

4H3041-bH = target: T11, 4H3041-bH; assay: two-hybrid library CCNG1
T11 chain: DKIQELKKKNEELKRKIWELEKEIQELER

4H56-bH = target: T12, 4H56-bH; assay: two-hybrid library CCNG1
T12 chain: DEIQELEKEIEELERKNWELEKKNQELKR

4H2859-bH = target: T13, 4H2859-bH; assay: two-hybrid library CCNG1
T13 chain: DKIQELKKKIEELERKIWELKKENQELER

4H2518-bH = target: T14, 4H2518-bH; assay: two-hybrid library CCNG1
T14 chain: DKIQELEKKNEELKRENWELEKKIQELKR

4H967-bN = target: T15, 4H967-bN; assay: two-hybrid library CCNG1
T15 chain: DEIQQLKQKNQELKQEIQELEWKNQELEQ

4H3364-bH = target: T16, 4H3364-bH; assay: two-hybrid library CCNG1
T16 chain: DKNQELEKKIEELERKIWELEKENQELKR

4H166-bH = target: T17, 4H166-bH; assay: two-hybrid library CCNG1
T17 chain: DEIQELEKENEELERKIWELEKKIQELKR

4H730-bH = target: T18, 4H730-bH; assay: two-hybrid library CCNG1
T18 chain: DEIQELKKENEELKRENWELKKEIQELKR

4H2444-bH = target: T19, 4H2444-bH; assay: two-hybrid library CCNG1
T19 chain: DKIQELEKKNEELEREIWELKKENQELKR

4H796-bH = target: T20, 4H796-bH; assay: two-hybrid library CCNG1
T20 chain: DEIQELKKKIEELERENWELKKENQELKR

4H349-bH = target: T21, 4H349-bH; assay: two-hybrid library CCNG1
T21 chain: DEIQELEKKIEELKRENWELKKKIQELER

4H264-bH = target: T22, 4H264-bH; assay: two-hybrid library CCNG1
T22 chain: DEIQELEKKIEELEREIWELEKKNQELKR

4H3297-bH = target: T23, 4H3297-bH; assay: two-hybrid library CCNG1
T23 chain: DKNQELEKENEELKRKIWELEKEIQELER

4H3381-bH = target: T24, 4H3381-bH; assay: two-hybrid library CCNG1
T24 chain: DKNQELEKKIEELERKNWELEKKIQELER

P8bH1 = target: T25, P8bH1; assay: two-hybrid library CCNG1
T25 chain: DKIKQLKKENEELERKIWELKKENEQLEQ

P7bH1 = target: T26, P7bH1; assay: two-hybrid library CCNG1
T26 chain: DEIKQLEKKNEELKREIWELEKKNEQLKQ

P4bH1 = target: T27, P4bH1; assay: two-hybrid library CCNG1
T27 chain: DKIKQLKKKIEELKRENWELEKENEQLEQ

P10bH1 = target: T28, P10bH1; assay: two-hybrid library CCNG1
T28 chain: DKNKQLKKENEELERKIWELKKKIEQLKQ

P1bH1 = target: T29, P1bH1; assay: two-hybrid library CCNG1
T29 chain: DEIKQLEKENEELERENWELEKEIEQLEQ

P9bH1 = target: T30, P9bH1; assay: two-hybrid library CCNG1
T30 chain: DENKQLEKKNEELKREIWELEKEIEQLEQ

P12bH1 = target: T31, P12bH1; assay: two-hybrid library CCNG1
T31 chain: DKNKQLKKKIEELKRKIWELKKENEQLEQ

P5bH1 = target: T32, P5bH1; assay: two-hybrid library CCNG1
T32 chain: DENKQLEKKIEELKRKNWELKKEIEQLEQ

P3bH1 = target: T33, P3bH1; assay: two-hybrid library CCNG1
T33 chain: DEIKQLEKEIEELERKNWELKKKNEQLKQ

P6bH1 = target: T34, P6bH1; assay: two-hybrid library CCNG1
T34 chain: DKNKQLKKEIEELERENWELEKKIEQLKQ

P11bH1 = target: T35, P11bH1; assay: two-hybrid library CCNG1
T35 chain: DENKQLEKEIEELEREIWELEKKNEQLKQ

P2bH1 = target: T36, P2bH1; assay: two-hybrid library CCNG1
T36 chain: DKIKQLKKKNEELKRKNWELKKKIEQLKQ

Core_INNN-es_KKKE = target: T37, Core_INNN-es_KKKE; assay: two-hybrid library CCmax; conditions: mean of both orientations
T37 chain: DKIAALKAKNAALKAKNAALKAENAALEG

Core_INNN-es_KKKK = target: T38, Core_INNN-es_KKKK; assay: two-hybrid library CCmax; conditions: mean of both orientations
T38 chain: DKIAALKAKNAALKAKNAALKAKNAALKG

Core_INNN-es_KKEK = target: T39, Core_INNN-es_KKEK; assay: two-hybrid library CCmax; conditions: mean of both orientations
T39 chain: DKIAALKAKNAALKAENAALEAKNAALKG

Core_NIIN-es_KKKK = target: T40, Core_NIIN-es_KKKK; assay: two-hybrid library CCmax; conditions: mean of both orientations
T40 chain: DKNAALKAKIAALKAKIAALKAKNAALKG

Core_ININ-es_KKEE = target: T41, Core_ININ-es_KKEE; assay: two-hybrid library CCmax; conditions: mean of both orientations
T41 chain: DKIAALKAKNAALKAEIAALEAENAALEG

Core_INNI-es_KKEK = target: T42, Core_INNI-es_KKEK; assay: two-hybrid library CCmax; conditions: mean of both orientations
T42 chain: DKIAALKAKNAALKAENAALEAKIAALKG

Core_IINN-es_KEEK = target: T43, Core_IINN-es_KEEK; assay: two-hybrid library CCmax; conditions: mean of both orientations
T43 chain: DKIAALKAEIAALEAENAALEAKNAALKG

Core_INII-es_KEKK = target: T44, Core_INII-es_KEKK; assay: two-hybrid library CCmax; conditions: mean of both orientations
T44 chain: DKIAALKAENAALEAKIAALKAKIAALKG

Core_INII-es_KEEE = target: T45, Core_INII-es_KEEE; assay: two-hybrid library CCmax; conditions: mean of both orientations
T45 chain: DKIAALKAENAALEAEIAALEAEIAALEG

Core_INNI-es_KEKE = target: T46, Core_INNI-es_KEKE; assay: two-hybrid library CCmax; conditions: mean of both orientations
T46 chain: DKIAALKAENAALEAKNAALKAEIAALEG

Core_NIII-es_KKKK = target: T47, Core_NIII-es_KKKK; assay: two-hybrid library CCmax; conditions: mean of both orientations
T47 chain: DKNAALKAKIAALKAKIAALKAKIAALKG

B1: 4H166-bH (peptide)
chain: DEIQELEKENEELERKIWELEKKIQELKR
- interaction score (4H2143-bH): 0.23
- interaction score (4H2585-bH): 0.621
- interaction score (4H949-bH): 0.814
- interaction score (4H2253-bH): 1.03
- interaction score (4H2931-bH): 1.25
- interaction score (4H2233-bH): 0.81
- interaction score (4H932-bH): 0.193
- interaction score (4H2760-bH): 0.896
- interaction score (4H2162-bH): 1.49
- interaction score (4H235-bH): -0.624
- interaction score (4H3041-bH): 1.58
- interaction score (4H56-bH): -1.05
- interaction score (4H2859-bH): 1.65
- interaction score (4H2518-bH): 1.54
- interaction score (4H967-bN): -0.508
- interaction score (4H3364-bH): -1.32
- interaction score (4H166-bH): 0.0371
- interaction score (4H730-bH): 0.00471
- interaction score (4H2444-bH): 0.192
- interaction score (4H796-bH): 0.588
- interaction score (4H349-bH): 0.968
- interaction score (4H264-bH): 0.0745
- interaction score (4H3297-bH): 1.62
- interaction score (4H3381-bH): 0.522

B2: P10bH1 (peptide)
chain: DKNKQLKKENEELERKIWELKKKIEQLKQ
- interaction score (P8bH1): -0.375
- interaction score (P7bH1): 0.654
- interaction score (P4bH1): -0.889
- interaction score (P10bH1): 0.178
- interaction score (P1bH1): 1.14
- interaction score (P9bH1): 1.04
- interaction score (P12bH1): -0.838
- interaction score (P5bH1): -0.973
- interaction score (P3bH1): 1.35
- interaction score (P6bH1): 0.126
- interaction score (P11bH1): 0.862
- interaction score (P2bH1): -1.33

B3: Core_INNN-es_EEEK (peptide)
chain: DEIAALEAENAALEAENAALEAKNAALKG
- interaction score (Core_INNN-es_KKKE): 2.01

B4: Core_INNN-es_EEEE (peptide)
chain: DEIAALEAENAALEAENAALEAENAALEG
- interaction score (Core_INNN-es_KKKK): 2.18

B5: Core_INNN-es_EEKE (peptide)
chain: DEIAALEAENAALEAKNAALKAENAALEG
- interaction score (Core_INNN-es_KKEK): 1.84

B6: Core_NIIN-es_EEEE (peptide)
chain: DENAALEAEIAALEAEIAALEAENAALEG
- interaction score (Core_NIIN-es_KKKK): 1.68

B7: Core_ININ-es_EEKK (peptide)
chain: DEIAALEAENAALEAKIAALKAKNAALKG
- interaction score (Core_ININ-es_KKEE): 2.03

B8: Core_INNI-es_EEKE (peptide)
chain: DEIAALEAENAALEAKNAALKAEIAALEG
- interaction score (Core_INNI-es_KKEK): 2.03

B9: Core_IINN-es_EKKE (peptide)
chain: DEIAALEAKIAALKAKNAALKAENAALEG
- interaction score (Core_IINN-es_KEEK): 1.87

B10: Core_INII-es_EKEE (peptide)
chain: DEIAALEAKNAALKAEIAALEAEIAALEG
- interaction score (Core_INII-es_KEKK): 1.83

B11: Core_INII-es_EKKK (peptide)
chain: DEIAALEAKNAALKAKIAALKAKIAALKG
- interaction score (Core_INII-es_KEEE): 2.08

B12: Core_INNI-es_EKEK (peptide)
chain: DEIAALEAKNAALKAENAALEAKIAALKG
- interaction score (Core_INNI-es_KEKE): 2.27

B13: Core_NIII-es_EEEE (peptide)
chain: DENAALEAEIAALEAEIAALEAEIAALEG
- interaction score (Core_NIII-es_KKKK): 2.01
